Reference: patent US20250170257A1 (NANOLATTIX BIOTECHNOLOGY, published 2025)

Tests used:
[1] = target: T1, tissue factor (UniProt P13726 33-251, limits assumed); assay: SPR (Biacore S200), antibody amine-coupled on CM5 chip, tissue factor as analyte 1.125-18 nM; MAb02
T1 construct: also called TF; antigen tissue factor
Description: (§1) The humanized anti-tissue factor antibody was coupled to the 2nd channel on the surface of the CM5 chip via amino groups, the 1st and the 3rd channels were used as reference channels, the tissue factor flew through the chip surface as the analyte (mobile phase). […] The Kinetics/Affinity program of Bicore S200 was run to measure the affinity.

[2] = target: T1, tissue factor; assay: SPR (Biacore S200), same method, tissue factor as analyte 12.5-200 nM; parent antibody before modification; tissue factor 12.5-200 nM
Description: as §1

[3] = target: T1, tissue factor; assay: SPR (Biacore S200), antibody amine-coupled on CM5 chip, tissue factor as analyte 1.125-18 nM; MAb01
Description: as §1

T1 sequence (P13726 33-251 limits assumed): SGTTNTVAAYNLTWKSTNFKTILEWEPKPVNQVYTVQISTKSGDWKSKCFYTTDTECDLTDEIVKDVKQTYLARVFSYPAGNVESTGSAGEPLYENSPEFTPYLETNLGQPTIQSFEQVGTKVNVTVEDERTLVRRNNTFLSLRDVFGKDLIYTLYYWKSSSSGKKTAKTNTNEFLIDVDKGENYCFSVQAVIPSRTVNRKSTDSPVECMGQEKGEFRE

B1: humanized anti-tissue factor antibody MAb02 (antibody, V domains shown)
VH: QIQLVQSGPEVVKPGASVRVSCKGSGYSFTDYNIYWVRQSPAKGLEWIGYIDPYNGLTIYDQNFRAKATLSVDHSTSNAYMEINSLRYEDTAVYFCARDVTSALEFWGQGTSVTVSS
VL: DIQMTQSPASISASVGERVTITCLGSQTIDTYLAWYLQKPGRSPQLLIYAATQLADGVPSRFSASGSGTDFSLTISSLQPEDVATYYCQNVYSSPFTFGQGNKLEIKR
notes: Full heavy chain (449 aa) and light chain (214 aa), expressed in CHO-dhfr- cells
[1]
  Kd: 1 nM

B2: humanized antibody against tissue factor before modification (CN 107446047A) (antibody, V domains shown)
VH: EVQLQQSGPELVKPGASVKVSCKASGYTFTHFNVYWVRQSPGKGLEWIGYIDPDNGITFYDENFMGKATLTVDKSSSTAYMQLNSLTSEDSAVYYCARDVTTAVDFWGQGTTLTVSS
VL: DIQMTQSPSSLSASVGDRVTITCLATQTLDTWLAWYQQKPGKAPQLLIYAATYLADGVPSRFSGSGSGTDFTFTISSLQPEDFATYYCQLVYSSPSTFGQGTKLEIK
notes: also called humanized antibody before modified
[2]
  Kd: 33.7 nM

B3: humanized anti-tissue factor antibody MAb01 (antibody, V domains shown)
VH: QIQLVQSGPELVKPGASVQVSCKTSGYSFTDYNVYWVRQSPAKGIEWIGYIDPYNGLTIYEQNFRGKGTLSLDHSTSTAYMELNSLRYEDTAVYFCARDVTTALDFWGQGTSVTVSS
VL: DIQMTQSPASISASIGERVTITCLASQTIDTWLAWFLQKPGRSPNLLIYAATNLADGVPYRFSASGSGNDFSLTISSLNPEDVATYYCQQVYSSPFTFGQGNKLEIRR
[3]
  Kd: 0.357 nM
